Measurements reported in the nanobody polyreactivity screen of Harvey et al. (2022).

experiment: yeast display, Sf9 membrane polyspecificity reagent, FACS + sequencing; frameworks hold sequencing errors
Method in brief: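 Genes from sorted yeast were amplified by colony PCR, read by MiSeq 2 × 250 sequencing and filtered on CDR length. These cells carried a synthetic nanobody library in Saccharomyces cerevisiae BJ5465 and were sorted by FACS into low and high (top ~1%) gates on anti-HA and streptavidin fluorescence. Polyreactivity is labelled according to the gate of origin.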

Row | Sequence | polyreactivity (PSR sort gate)
1 | QVQLVESGGGLVQAGGSLRLSCAASGGTFNAYAMGWYRQAPGKERELVATISYSGGSTYYADSVKGRFTISRDNAKNTVYLQMNSLKPEDTAVYYCAKVRYYPYSPGGLDYWGQGTQVTVSS | low polyreactivity
2 | QVQLVESGAGLVQAGGSLRLICAASGRTFYPNAMGWYRQAPGKERELVAAITYSGTRTYYADSVKGRFTISRDNAKNTVYLQMNSLKPEDTAVYYCAAVVGKIGFNYWGQGTQVTVSS | high polyreactivity
3 | QVQLVESGGGLVQAGVSLRLSCAAYGFTFTGYAMGWYRQAPGKEMEFVAAITTGGGSTYYADSVKGRFTISRDNAKNTVYFQMNSLKPEDTAVYYCAKSRQYIGGFDYWGQGTQVTVSS | high polyreactivity
4 | QVQLVESGGGLVQAGGSLRLSCAASGFTFPDYAMGWYRQAPGKERELVAAISSDGSTYYADSVKGPFTISRDNAKNTVYLQMNSLKPEDTAVYYCAAYVVWLYGDDYWGQGTQVTVSS | low polyreactivity
5 | QVQRVESGGGLVQAGGRLRLSCAASGFIFSYNAMGWYRQAPGKERELVAAISWSGVSTYYADSVMGRFTISRDNAKNTVYLQMNSLKPEDTAVYYCSAVRLRYATPVQFNPYIFGYWGQGTQVTVSS | high polyreactivity
6 | QVQLVESGGGLVQAGGSLRLSCAASGRIFGTNAMGWYRQAPGKERELVAAINGSDSSTYYADSVKGRFTISRDNAKNTVYLQMNSLKPEDTAVYYCAADWDFFQQGANGAPYDYWGQGTQVTVSS | low polyreactivity
7 | QVQLVESGGGLVQAGGSLRLSCSASGSIFPTYAMGWYRKAPGKERELVAAIRSGSNTYYADSVKGRFTISRDNAKNTVYLQMNSLKPEDTAVYYCNKATNLSGGYDSWGQGTQVTVSS | low polyreactivity
8 | QVQLVESGGGLVQAGGSLRLSCAASGFTFGYYTMGWYRQAPGKERELVAAISWSGDSTYYADSVKGRFTISRDNAKNNVYLQMNSLKPEDTAVYYCAAAVYGSWPDYDYWGQGTQVTVSS | low polyreactivity
9 | QVQIEESGGGLVQAGGSLRLSCAASGFTFRWYAMGWSIQAPGKERELVAAIDWSGGSTNYADSVKGRFTISRDNAKNTVYLQMNSLKPEDTAVYYCAAVWRYWYPGFVPYDYWGQGTQVTVSS | high polyreactivity
10 | QVQLVESGGGLVQAGGSLSLSCAASGLTFQEYAMRWYRQAPGKERELVAAISWSGGSTYYADSVKGRFTISRDNAKNTVYLQMNSLKPEDTAVYYCAAEAYEEYITGWYAYDYWGQGTQVTVSS | high polyreactivity
11 | QVQIVESGGGLVQAGGSLRLSCAASGITFPRYAMGWYRQAPGKESELVATITSRGGSTYYADSVKGRFTISRDNAKNTVYLQMISLKPEDTAVYYFNDRHYIFWSRYDYWGQGTQVTVSS | high polyreactivity
12 | QVQHVESGGGLVQAGGSLRLSCAASGSIFGVYDMGWYRQAPGKERELVAAISWRGGSTYYADSVKGRFTISRDNAKNTVYLQMNSVKPEDTAVYYCNALGVAEYDWGQGTQVTVSS | low polyreactivity
13 | QVQLVESGGGLVQAGGSLRLSCAASGSIFAYNAMGWYRQAPGKEREFVASISSNGDSTFYADSVKGRFTISRDNAKNTVYLQMNSLKPEDTAVYYCAADVIAWDGYLWQRYDYWGQGTQVTVSS | low polyreactivity
14 | QVQLVESGGGLVQAGGSLRLSCAASGSIFSRYAMGWYRQAPGKERELVAAISTIGGSTYYADSVKGRFTISRDNAKNTVYLQMNSLIPEDTAVYYCNARQTAALTPRYGYWGQGTQVTVSS | high polyreactivity
15 | QVQLVESGGGLVQAGRNLRLSCAASGRTFYNNVMGWYRQAPGKERELVAAIDWNDGSTYYADSVKGRFTISRDKAKNTVFLQMNSLKPEDTAVYYCAADAYGYGGDSWGQGTQVTVSS | low polyreactivity
16 | QVQLVESGGGLVQAGGSLRLSCAASGFTFRAYAMGWYRQAPGKEREFVAAISRRGGSTSYADSVKGRFTISRDIAKNTVYLQMNSQKPEDTSVYYCAADVQEEYDYWGQGTQVTVSS | high polyreactivity
17 | QVQLVESGGGLVQAGGSLRLSCAASGSIFPIYAMGWYRPAPGKERELVAAINRSGGSTYYADSVKGRFTISRDNAKNTVYLQMNSLKPEDTAVYYCNADYGYHNQLFWGYYGWSSDHWGQGTQVTVSS | low polyreactivity
18 | QVQLVESGGGIVQAGGSLRLSCADSGRTFGYYGMGWYRQAPGKERELVASINFSSGSTFYADSVKGRFTISRDNAKNTVYLQMNSLKPEDTAVYYCAGRAKAVRTYAYNYWGQGTQVTVSS | low polyreactivity
19 | QVQLVESRGGLVQAGGSLRLSCAACGLIFTRNAMGWYSAAPGKERELVAAISRSGGTTYYADSVKGRFTISRDNAKNTVYLQMNSLKPEDTAVYYCAAGSWWVIGGSVSYWYNYWGQGTQVTVSS | high polyreactivity
20 | QVQLVESGGGLVQAGGSLRLSCAASGSIFLDYAMGWYRQAPGKERELVDGITISGGSTYYADSVKGRFTISRDNAKNTVYLQMNSLKPEYTAVYYCAKVAPRSSSSQEYYYWGQGTQVTVSS | low polyreactivity
21 | QGQLVESGGGLVQAGGSLRLSCAASGSILRSYAMGWSIQAPRKVRELVATITRSAGRTYYADSVKGRFTISRDNAKNTVYLQMNSLKPEDTALYYCAACYCDTETGYREYDYWGQGTQVNVSS | low polyreactivity
22 | QVQLVDSGGGLVQAGGILRLSSPASGSTFKYYTMGRSRQAPGKEREWVAGITLSGPTTYYADSVKGRFTISRDNAKNTVYLQMNSLKPEDTAVYYCAADYYHDFNAYYYWGQGTQVTVSS | low polyreactivity

Row | Sequence | polyreactivity (PSR sort gate)
23 | QVQLEESGGGLVQAGGRLRLSCAASGGNFNYYPMGWYREAPGKERELVAAITRGGSTYYADSVKGRFTISRDNAKNTVYLQMNSLKPEDTAVYYCAAGWRRYDKSPLEGSWGQGTQVTLSS | high polyreactivity
24 | QVQLVESGGGLLQAGGSLRLSCAASGITFTSYVMGWYRQAPGKERELVAAIRWSGGRTYYADSVKGRFTISRDNAKYTVYLQMNSLKPEDTAVYYCNRVTRSHVDYWGQGTQVTVSS | high polyreactivity
25 | QVQLVESGGGLVQAGGSLRLSCAASGLTITKNVMGWYRQAPGKERELVAVISRSGGSTYYADSVKGRFTISRDNAKNTVYLQMNSLKPEDTAVYYCNVKGPGPSRGNYWGQGTQVTVSS | low polyreactivity
26 | QVQLVESGGGLVQAGGSLRLSCAASGITFNDNAMGWYRQAPGKERELVAAINSGTGTYYADSVKGRFTISRDNAKNTVYLQMNSLKPEDTAVYYCAADSRPYLRDYWGQGTQVTVSS | low polyreactivity
27 | QVQLVESGGGLVQAGGSLRLSCAASGSIFGYYAMGWYRQAPGKERELVAAISSGGSTKYADSVKGRFTISRDNAKNTVYLQMNSLKPEDTAVYYFNAAYSQIRFNYRGQGTQVTVSS | high polyreactivity
28 | QVHLVESGGGLVQAGGSLRISCAASGRIFVGYVMGWYRQAPGKERELVAAITWRGGSTYADSVKGRFTISRDNAKNTVYLQMNSLIPEDTAVYYCAAKVSRTYPRIPYYYWGQGTQVTVSS | high polyreactivity
29 | QVQLVESGGGLVQAGGSLRLSCAASGYIFRGYVMGWYRQAPGTERELVAGISRSGSSTYYADSVKGRFTISRDNAKNNVYLQMNSLKPEDTAVYYCAAVRSGIEYGYWGQGTQVTVSS | high polyreactivity
30 | QVQIVESGGGLVQAGGRLRLSCSASGSIFDWYDMGWYRQAPGKERELVAAITTGGITNYADSVKGRFTLSRDNAKNTVYLQMNSLKPEDTAVYYCAADSLGVYDGDYWGQGTQVTVSS | low polyreactivity
31 | QVQLVESGGGLVQAGGSLRLSCAASGRIFEVYAMGWYRQAPGKERELVAAITSSGGSRTYYADSVKGRFTISRDNAKNTVYLQMNSLKPEDTAVYYCNDYGGRWIGGRRAYRYNYWGQGTQVNVSS | high polyreactivity
32 | QVQLVESGGGLVQAGGSLRLSCAASGFTFISNAMGWYRQAPGKERELVAAISSSGGRTYYADSVKGRFTISRDNAKNTVYLQMNRLKPEDTAVYYCYADRSLLYSRKIEYDYWGQGTQVTVSS | low polyreactivity
33 | QVQLVESGGGLVQAGGSLRLSCAASGSTFLYNAMGWYRQAPGKEREFVAAISGSGGTTYYADSVKGRFTISRDNAKNTVYLQMNSLNPEDTAVYYCAVSQSWYWYYASDYWGQGTQVTVSS | low polyreactivity
34 | QVQLVESGGGLVQAGGSLRLSCAASGLTFQGYAMGWYRQAPGKERELVAAISSSGDITYYADSVKGRFTISRDNAKNTVYLQMNSLKPEDTAVYYCAAEAEYYVYGTYDYWGQGTQVTVSS | high polyreactivity
35 | QVQLVESGGGLVQAGGSLRLSWAASGSIITSNGMGWYRQAPGKERELVAAITSGTSTYYADSVKGRFTISRDNAKNTVYLQMNSLKPEDTAVYYCAAGRWWVYRYARYYYWGQGTQVTVSS | high polyreactivity
36 | LVQLQESAGGLVQAGGSLRLSCAASGSISVTRAMCWYRQAPGNERELVASTTGGSNNADSVNGRFTISRDNAKNTVYLQMNSLKPEDTAVYYCAAAVGVGRSGGTYDYWGQGTQVTVSS | low polyreactivity
37 | QVQLVESGGGLVLAGGSLRLSCAASGSIFSLYAMGWYRQAPGKEREVVAALSRGGSTNYADSVKGRFTISRDTAKNTVYLQMNCLKPEDTAVYYSNAGFGVRRKHITVYTWYDYWGQGTQVTVSS | low polyreactivity
38 | QVQLVESGGGLVQAGGSLRLSCAASGSIFKLYAMGWYRQAPGKERELVASISVSGGSTYYADSVKGRFTISRDNAKNTVYLQMNSLKPEDTAVYYCAAEKRSSIVGSGGNYWGQGTQVTVSS | low polyreactivity
39 | QVQLVESGGGLVQAGGSLRLSCSASGLTFNFNAMGWYRQAPGKERELVAAISYRAGSTYYADSVKGRFTISRDNAKNTVYLQMNSLKPEDTAVYYCAADGYYYVKSGTYWSDYWGQGTQVTVSS | low polyreactivity
40 | QVQLVESGGGLVQAGGSLRLSCAASGSIFSKYAMGWYRQAPVKERELVAAIDWSGGSTYYADSVKGRFTISRDNAKNTVYLQMNSLKPEDTAVYYCNAEYVVADYGYYTIEFDYWGQGTQVTVSS | low polyreactivity
41 | QVQLVESGGRLVQAVGSLRLRCAPSGNTFPVYAMGWYRQASGKERELVATITSGGSTNYADSVKGRFTISRDNAKNTVYLQMNSLKPEDTAVYYCARRAVYSKRRYDYWGQGTQVTVSS | low polyreactivity
42 | QVQLVESGGGLVQAGGSLRLSCAASGIIFTVYAMGWYRQAPGKERELVASITSNGGSTYYADSVKGRFTISRDNAKNTVYLQMNSLKPEDTAVYYCAADSYYDPVDYNYWGQGTQVTVSS | low polyreactivity
43 | QVQLVESGGGLVQAGGSLRLSCAAPGSTFGRYAMGWYRQAPGKERELVAAISKSGGSTYYADSVKGRFTISRDNAKNTVYLQMNSLKPEDTAVYYCAATTTRYSYEYWGQGTQVTVSS | low polyreactivity
